We go through nine molecules from US20220112276A1 (Janssen / Centocor, published 2022).

Holding throughout (test): SPR, VHH captured by anti-Fc, ECD analyte
(Surface plasmon resonance follows binding to a sensor surface in real time, without labels.)

Experiment [1] deals with T1, cynomolgus monkey pIgR extracellular domain (cynomolgus monkey, UniProt A0A2K5WMU9 19-638).
T1 construct: extracellular domain
In short, it runs like this:
(§1)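 Anti-human Fc surface captured VHH at 0.5 ug/ml (~200-300 RU); running buffer HBSP with 100 ug/ml BSA, 30 μL/min. Single-cycle kinetics with ECD injected low to high from 30 nM in 3-fold dilutions, dissociation 30 min. Double-referenced data globally fit to 1:1 Langmuir model for kon, koff, KD.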

Experiment [2] addresses T2, human pIgR extracellular domain (ECD) (human, UniProt P01833 19-638).
T2 construct: Bought from R&D Systems (Cat 2717-PG-050); also called hpIgR ECD
In short, it runs like this: as §1

Experiment [3] deals with T3, mouse pIgR extracellular domain (ECD) (mouse, UniProt O70570 19-645).
T3 construct: Bought from R&D Systems (Cat 2800-PG-050); also called mpIgR ECD
T3 sequence: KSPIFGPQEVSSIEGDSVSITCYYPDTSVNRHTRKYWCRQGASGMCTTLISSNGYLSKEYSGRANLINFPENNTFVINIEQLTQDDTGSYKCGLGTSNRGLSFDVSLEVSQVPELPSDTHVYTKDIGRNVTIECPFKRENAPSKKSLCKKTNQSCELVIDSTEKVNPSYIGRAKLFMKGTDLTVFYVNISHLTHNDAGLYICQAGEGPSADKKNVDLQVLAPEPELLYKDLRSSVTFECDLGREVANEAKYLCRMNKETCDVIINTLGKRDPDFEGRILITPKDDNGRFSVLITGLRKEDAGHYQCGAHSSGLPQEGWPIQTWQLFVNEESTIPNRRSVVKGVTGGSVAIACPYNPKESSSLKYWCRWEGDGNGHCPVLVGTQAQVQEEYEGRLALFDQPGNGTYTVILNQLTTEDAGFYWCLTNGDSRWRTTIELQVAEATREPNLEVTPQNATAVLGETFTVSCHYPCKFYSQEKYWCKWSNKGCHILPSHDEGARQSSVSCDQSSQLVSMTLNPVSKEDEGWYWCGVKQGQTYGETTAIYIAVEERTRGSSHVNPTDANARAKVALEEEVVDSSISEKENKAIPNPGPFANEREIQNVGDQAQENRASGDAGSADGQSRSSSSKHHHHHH
The method in brief:
as §1

The target of experiment [4] is T4, rat pIgR extracellular domain (rat, UniProt P15083 19-643).
T4 construct: extracellular domain
T4 sequence (looked up): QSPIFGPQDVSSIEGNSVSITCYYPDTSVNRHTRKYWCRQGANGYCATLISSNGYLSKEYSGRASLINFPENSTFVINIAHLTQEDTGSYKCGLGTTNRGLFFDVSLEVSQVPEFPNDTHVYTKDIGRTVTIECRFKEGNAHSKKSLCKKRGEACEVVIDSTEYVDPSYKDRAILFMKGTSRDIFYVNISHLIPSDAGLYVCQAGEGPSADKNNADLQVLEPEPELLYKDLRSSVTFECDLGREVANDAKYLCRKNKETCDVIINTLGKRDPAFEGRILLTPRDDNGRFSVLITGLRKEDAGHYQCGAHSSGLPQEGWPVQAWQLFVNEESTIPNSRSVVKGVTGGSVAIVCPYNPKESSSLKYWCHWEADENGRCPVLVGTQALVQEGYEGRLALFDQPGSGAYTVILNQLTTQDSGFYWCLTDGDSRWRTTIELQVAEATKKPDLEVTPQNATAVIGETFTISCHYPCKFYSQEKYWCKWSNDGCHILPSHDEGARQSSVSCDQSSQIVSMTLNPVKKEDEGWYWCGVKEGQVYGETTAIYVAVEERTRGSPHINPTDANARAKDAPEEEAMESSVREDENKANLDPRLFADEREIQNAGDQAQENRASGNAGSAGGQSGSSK
The method in brief:
as §1

T1 sequence (A0A2K5WMU9 entry or part of it): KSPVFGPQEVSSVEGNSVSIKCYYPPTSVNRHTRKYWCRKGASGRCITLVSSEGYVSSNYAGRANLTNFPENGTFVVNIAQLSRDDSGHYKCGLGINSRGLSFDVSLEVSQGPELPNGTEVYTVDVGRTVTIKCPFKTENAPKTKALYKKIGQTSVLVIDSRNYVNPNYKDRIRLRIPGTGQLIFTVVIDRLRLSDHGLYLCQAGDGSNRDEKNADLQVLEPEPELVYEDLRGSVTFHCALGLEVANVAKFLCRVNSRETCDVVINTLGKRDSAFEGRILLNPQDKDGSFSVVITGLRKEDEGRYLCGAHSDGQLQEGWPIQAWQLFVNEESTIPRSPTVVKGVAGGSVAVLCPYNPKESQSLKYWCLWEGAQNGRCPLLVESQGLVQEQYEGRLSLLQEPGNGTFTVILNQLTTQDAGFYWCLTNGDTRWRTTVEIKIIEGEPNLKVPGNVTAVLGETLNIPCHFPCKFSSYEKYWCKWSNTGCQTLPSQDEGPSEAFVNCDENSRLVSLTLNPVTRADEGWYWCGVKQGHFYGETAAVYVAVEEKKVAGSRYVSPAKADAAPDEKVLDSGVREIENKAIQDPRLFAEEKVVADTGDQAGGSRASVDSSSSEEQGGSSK
T2 sequence (P01833 other isoform, or with tags, fused parts or gaps): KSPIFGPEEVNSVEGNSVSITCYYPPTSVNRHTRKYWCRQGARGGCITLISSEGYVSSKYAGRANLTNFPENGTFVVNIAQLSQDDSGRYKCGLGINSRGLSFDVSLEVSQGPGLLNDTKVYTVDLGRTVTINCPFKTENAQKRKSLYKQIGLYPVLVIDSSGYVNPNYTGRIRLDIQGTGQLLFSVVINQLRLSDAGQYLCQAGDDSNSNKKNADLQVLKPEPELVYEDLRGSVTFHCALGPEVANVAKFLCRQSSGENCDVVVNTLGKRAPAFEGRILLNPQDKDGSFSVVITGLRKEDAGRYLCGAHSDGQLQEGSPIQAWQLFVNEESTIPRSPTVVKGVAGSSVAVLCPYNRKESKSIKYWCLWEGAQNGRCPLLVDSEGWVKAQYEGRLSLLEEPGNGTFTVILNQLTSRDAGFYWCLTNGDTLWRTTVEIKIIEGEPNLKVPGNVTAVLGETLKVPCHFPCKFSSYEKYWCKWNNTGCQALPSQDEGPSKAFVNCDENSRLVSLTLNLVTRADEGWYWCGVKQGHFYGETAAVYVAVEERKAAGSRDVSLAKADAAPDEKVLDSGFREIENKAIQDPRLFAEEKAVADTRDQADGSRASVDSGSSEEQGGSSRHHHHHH

B1: 01H10R3 VHH Mono-Fc (Fc fusion)
chain: QVQLVESGGGLVQAGGSLRLSCAASGRAFSQYTMGWFRQAPGKEREFVTAIRWSGGSIYKYYADSVKGRFTISGDNARNTVDLQMNSLKPEDTAVYYCAARMSPWGDPRGNEYDYWGQGTLVTVSSSPAPELLGGPSVFLFPPKPKDTLMISRTPEVTCVVVDVSHEDPEVKFNWYVDGVEVHNAKTKPREEQYNSTYRVVSVLTVLHQDWLNGKEYKCKVSNKALPAPIEKTISKAKGQPREPQVYTKPPSREEMTKNQVSLSCLVKGFYPSDIAVEWESNGQPENNYKTTVPVLDSDGSFRLASYLTVDKSRWQQGNVFSCSVMHEALHNHYTQKSLSLSPGK
The Kd is the constant that tells how readily two partners part at equilibrium. With B1, the dissociation constant (Kd) stood at 94.6 nM in experiment [1], 34 nM in experiment [2], 47.1 nM in experiment [3] and 11.4 nM in experiment [4].

B2: 01A02R3 VHH Mono-Fc (Fc fusion)
chain: EVQLVESGGGLVQSGGSLRLSCAASGRTFDQFTVGWFRQAPGKEREFVTAIRWSGSTTYRYYADSVKGRFTISRDNARNTVDLQMNSLKPEDSAVYYCAGQMSQWSDPRGDDYDSWGQGTLVTVSSSPAPELLGGPSVFLFPPKPKDTLMISRTPEVTCVVVDVSHEDPEVKFNWYVDGVEVHNAKTKPREEQYNSTYRVVSVLTVLHQDWLNGKEYKCKVSNKALPAPIEKTISKAKGQPREPQVYTKPPSREEMTKNQVSLSCLVKGFYPSDIAVEWESNGQPENNYKTTVPVLDSDGSFRLASYLTVDKSRWQQGNVFSCSVMHEALHNHYTQKSLSLSPGK
Turning to B2, the Kd in experiment [1] worked out at 4.97 nM; in experiment [2], 17.9 nM; in experiment [3] it was 7.18 nM; in experiment [4] it was 2.78 nM.

B3: 01F09R3 VHH Mono-Fc (Fc fusion)
chain: QVQLVESGGGLAQAGGSLTLSCAASGTAAGIDVMGWYRQTPGNSREFVARIFSNDVTHYADSVTGRFTLSRTQDKNTVSLQMNSLKPDDTGVYYCNARIWTGSTTVDYWGQGTQVTVSSSPAPELLGGPSVFLFPPKPKDTLMISRTPEVTCVVVDVSHEDPEVKFNWYVDGVEVHNAKTKPREEQYNSTYRVVSVLTVLHQDWLNGKEYKCKVSNKALPAPIEKTISKAKGQPREPQVYTKPPSREEMTKNQVSLSCLVKGFYPSDIAVEWESNGQPENNYKTTVPVLDSDGSFRLASYLTVDKSRWQQGNVFSCSVMHEALHNHYTQKSLSLSPGK
With B3, the Kd in experiment [1] worked out at 566 nM; in experiment [2], 0.397 nM; in experiment [3], 985 nM; in experiment [4] it was 70.8 nM.

B4: 01H10R2 VHH Mono-Fc (Fc fusion)
chain: QVQLVESGGGLVQPGGSLRLSCAASGRTSSISTMGWFRQAPGKEREFVTAIRWSGSSSYKYYADSVKGRFTISRDNARNTVYLQMNSLKPEDTAVYYCAAQMSLWRDPREIDYDYWGQGTLVTVSSSPAPELLGGPSVFLFPPKPKDTLMISRTPEVTCVVVDVSHEDPEVKFNWYVDGVEVHNAKTKPREEQYNSTYRVVSVLTVLHQDWLNGKEYKCKVSNKALPAPIEKTISKAKGQPREPQVYTKPPSREEMTKNQVSLSCLVKGFYPSDIAVEWESNGQPENNYKTTVPVLDSDGSFRLASYLTVDKSRWQQGNVFSCSVMHEALHNHYTQKSLSLSPGK
Consider B4, for which the Kd in experiment [1] is 2.92 nM; in experiment [2], 5.95 nM; in experiment [3] it was 3.45 nM; in experiment [4], 2.4 nM.

B5: 01C03R3 VHH Mono-Fc (Fc fusion)
chain: QVQLVESGGGLVQAGGSLRLSCAASGRTFSSYAMGWFRQAPGKEREFVAAIHWNGASTYRYSADSVKGRFTISRDNAKNTVYLQMNSLKPEDTAAYYCAASPPPTVGDVRDPANYDSWGQGTLVTVSSSPAPELLGGPSVFLFPPKPKDTLMISRTPEVTCVVVDVSHEDPEVKFNWYVDGVEVHNAKTKPREEQYNSTYRVVSVLTVLHQDWLNGKEYKCKVSNKALPAPIEKTISKAKGQPREPQVYTKPPSREEMTKNQVSLSCLVKGFYPSDIAVEWESNGQPENNYKTTVPVLDSDGSFRLASYLTVDKSRWQQGNVFSCSVMHEALHNHYTQKSLSLSPGK
Regarding B5, the equilibrium dissociation constant (Kd) in experiment [1] worked out at 22.2 nM; in experiment [2] it was 13.3 nM; in experiment [3], 25.6 nM; in experiment [4], 15.2 nM.

B6: 01B07R2L VHH Mono-Fc (Fc fusion)
chain: EVQLVESGGGLVQAGGSLRLSCAASGRTFSSDAVGWFRQAPGKEREFVAHIHWSGDFTTYYYYGDFVKGRFTISRGTAKNTVYLQMNSLKPEDTAVYYCAAPKGAIGDPRSTREYDYWGQGTLVTVSSSPAPELLGGPSVFLFPPKPKDTLMISRTPEVTCVVVDVSHEDPEVKFNWYVDGVEVHNAKTKPREEQYNSTYRVVSVLTVLHQDWLNGKEYKCKVSNKALPAPIEKTISKAKGQPREPQVYTKPPSREEMTKNQVSLSCLVKGFYPSDIAVEWESNGQPENNYKTTVPVLDSDGSFRLASYLTVDKSRWQQGNVFSCSVMHEALHNHYTQKSLSLSPGK
As for B6, the dissociation constant (Kd) in experiment [1] worked out at 2.11 nM; in experiment [2] it was 11.4 nM; in experiment [3], 4.46 nM; in experiment [4], 2.33 nM.

B7: 03D02R3 VHH Mono-Fc (Fc fusion)
chain: EVQLVESGGGLAQAGGSLRLSCTASGTISKIDVMAWYRQTPGNERELVARIFSNDVTHYVDSAKGRFTLSRAQDKNTVDLQMNSLEPDDAAVYYCNAQIWSDMRGRMDTYWGQGTLVTVSSSPAPELLGGPSVFLFPPKPKDTLMISRTPEVTCVVVDVSHEDPEVKFNWYVDGVEVHNAKTKPREEQYNSTYRVVSVLTVLHQDWLNGKEYKCKVSNKALPAPIEKTISKAKGQPREPQVYTKPPSREEMTKNQVSLSCLVKGFYPSDIAVEWESNGQPENNYKTTVPVLDSDGSFRLASYLTVDKSRWQQGNVFSCSVMHEALHNHYTQKSLSLSPGK
B7: the dissociation constant (Kd) in experiment [1] stood at 37.8 nM; in experiment [2] it was 0.391 nM; in experiment [3], 126 nM; in experiment [4], 126 nM.

B8: 01A01R3 VHH Mono-Fc (Fc fusion)
chain: EVQLVESGGGLVQAGGSLRLSCAASGSGRTFTSYTMGWFRQAPGKEREFVSALTWADDSTYYKYYADSMKGRLTISRDNAKNTVYLQMNSLKPEDTAVYYCVATGRGLTYDPRDRRKYDYWGQGTQVTVSSSPAPELLGGPSVFLFPPKPKDTLMISRTPEVTCVVVDVSHEDPEVKFNWYVDGVEVHNAKTKPREEQYNSTYRVVSVLTVLHQDWLNGKEYKCKVSNKALPAPIEKTISKAKGQPREPQVYTKPPSREEMTKNQVSLSCLVKGFYPSDIAVEWESNGQPENNYKTTVPVLDSDGSFRLASYLTVDKSRWQQGNVFSCSVMHEALHNHYTQKSLSLSPGK
For B8, the Kd in experiment [1] stood at 4.93 nM; in experiment [2] it was 1.31 nM; in experiment [3], 14 nM; in experiment [4], 1.34 nM.

B9: 01A07R3 VHH Mono-Fc (Fc fusion)
chain: EVQLVESGGGLVQTGESLRLSCAASGRAFSDLRMAWFRQVPGKEREFVAAVEWRGSSRYYYSADSVKGRFTISRTSPKGETYLQMNGLKPEDTAVYYCAAVSPVVGDPRNSDTYNYWGQGTQVTVSSSPAPELLGGPSVFLFPPKPKDTLMISRTPEVTCVVVDVSHEDPEVKFNWYVDGVEVHNAKTKPREEQYNSTYRVVSVLTVLHQDWLNGKEYKCKVSNKALPAPIEKTISKAKGQPREPQVYTKPPSREEMTKNQVSLSCLVKGFYPSDIAVEWESNGQPENNYKTTVPVLDSDGSFRLASYLTVDKSRWQQGNVFSCSVMHEALHNHYTQKSLSLSPGK
B9: the dissociation constant Kd in experiment [1] was determined as 10.7 nM; in experiment [2], 0.2 nM; in experiment [3] it was 1.41 nM; in experiment [4], 1.24 nM.
